The supplement of paper PMC9112550, “Optimization of the antimicrobial peptide Bac7 by deep mutational scanning” (BMC Biology, 2022)

These sequences were tested on Escherichia coli TOP10 (assay: shrunken log2 fold change of peptide-encoding DNA abundance (4.5 h post-induction vs induction); higher = less antimicrobial activity (less host growth inhibition)). Settings: time post-induction: 4.5 h; library: site-saturation at positions 5, 18, 19, 20.
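Also: peptides expressed intracellularly from a pBAD plasmid library in pooled LB shake-flask culture, induced with 0.3% L-arabinose, DNA abundance read by NGS, three biological replicates, DESeq2 with apeglm shrinkage.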

| Sequence | shrunken log2 fold change |
| --- | --- |
| RRIRQRPPRLPRPRPRPVYWPRP | 0.0694 |
| RRIRVRPPRLPRPRPRPCYKPRP | -0.691 |
| RRIRMRPPRLPRPRPRPEYEPRP | 0.644 |
| RRIRIRPPRLPRPRPRPRPKPRP | 0.567 |
| RRIRERPPRLPRPRPRPVTHPRP | -0.194 |
| RRIRRRPPRLPRPRPRPFNCPRP | -0.301 |
| RRIRLRPPRLPRPRPRPHLSPRP | -0.0728 |
| RRIRKRPPRLPRPRPRPIPDPRP | 0.2 |
| RRIRTRPPRLPRPRPRPHFPPRP | -0.199 |
| RRIRDRPPRLPRPRPRPEENPRP | 1.11 |
| RRIRVRPPRLPRPRPRPLSFPRP | -0.426 |
| RRIRSRPPRLPRPRPRPTPGPRP | 0.451 |
| RRIRVRPPRLPRPRPRPMIHPRP | -0.465 |
| RRIRSRPPRLPRPRPRPTDIPRP | -0.489 |
| RRIRIRPPRLPRPRPRPILLPRP | -0.266 |
| RRIRARPPRLPRPRPRPVPMPRP | 0.404 |
| RRIRTRPPRLPRPRPRPHKRPRP | -0.0155 |
| RRIRMRPPRLPRPRPRPFCSPRP | 0.0534 |
| RRIRARPPRLPRPRPRPLKMPRP | 0.283 |
| RRIRFRPPRLPRPRPRPKELPRP | -0.127 |
| RRIRFRPPRLPRPRPRPMIDPRP | -0.209 |
| RRIRDRPPRLPRPRPRPMVVPRP | -0.0202 |
| RRIRYRPPRLPRPRPRPMMCPRP | 0.168 |
| RRIRPRPPRLPRPRPRPGMNPRP | -0.0398 |
| RRIRARPPRLPRPRPRPEIEPRP | 0.719 |

| Sequence | shrunken log2 fold change |
| --- | --- |
| RRIRDRPPRLPRPRPRPQYDPRP | -0.0265 |
| RRIRWRPPRLPRPRPRPHMYPRP | -0.443 |
| RRIRSRPPRLPRPRPRPLWRPRP | 0.303 |
| RRIRDRPPRLPRPRPRPGYFPRP | -1.25 |
| RRIRTRPPRLPRPRPRPTPQPRP | 0.241 |
| RRIRERPPRLPRPRPRPNTVPRP | -0.595 |
| RRIRARPPRLPRPRPRPIRNPRP | -0.179 |
| RRIRRRPPRLPRPRPRPRSNPRP | 0.224 |
| RRIRVRPPRLPRPRPRPCNFPRP | -0.0271 |
| RRIRRRPPRLPRPRPRPSERPRP | -0.0993 |
| RRIRMRPPRLPRPRPRPPAHPRP | 0.721 |
| RRIRSRPPRLPRPRPRPNEVPRP | -0.131 |
| RRIRARPPRLPRPRPRPEPHPRP | 0.374 |
| RRIRHRPPRLPRPRPRPSCPPRP | -0.217 |
| RRIRERPPRLPRPRPRPTPYPRP | -0.389 |
| RRIRFRPPRLPRPRPRPMARPRP | -0.0235 |
| RRIRVRPPRLPRPRPRPHQMPRP | -0.0715 |
| RRIRGRPPRLPRPRPRPDPQPRP | 0.694 |
| RRIRYRPPRLPRPRPRPPDTPRP | -0.425 |
| RRIRQRPPRLPRPRPRPHFLPRP | -0.218 |
| RRIRHRPPRLPRPRPRPYHAPRP | -1.21 |
| RRIRFRPPRLPRPRPRPEDLPRP | 0.143 |
| RRIRRRPPRLPRPRPRPPWTPRP | 0.443 |
| RRIRMRPPRLPRPRPRPLMPPRP | 0.13 |
| RRIRDRPPRLPRPRPRPDFYPRP | 0.00164 |

| Sequence | shrunken log2 fold change |
| --- | --- |
| RRIRVRPPRLPRPRPRPLCQPRP | 0.258 |
| RRIRARPPRLPRPRPRPLKLPRP | -0.152 |
| RRIRERPPRLPRPRPRPLAQPRP | 0.21 |
| RRIRIRPPRLPRPRPRPMNEPRP | 0.0707 |
| RRIRDRPPRLPRPRPRPNTCPRP | -0.0241 |
| RRIRIRPPRLPRPRPRPILEPRP | 0.0083 |
| RRIRTRPPRLPRPRPRPRNTPRP | -0.209 |
| RRIRKRPPRLPRPRPRPDRVPRP | -0.00884 |
| RRIRRRPPRLPRPRPRPHAAPRP | 0.837 |
| RRIRGRPPRLPRPRPRPWTPPRP | 0.75 |
| RRIRNRPPRLPRPRPRPQNDPRP | -0.966 |
| RRIRDRPPRLPRPRPRPWGTPRP | 0.0812 |
| RRIRYRPPRLPRPRPRPCRSPRP | 0.00487 |
| RRIRKRPPRLPRPRPRPAIDPRP | 0.113 |
| RRIRYRPPRLPRPRPRPNTEPRP | -0.0461 |
| RRIRHRPPRLPRPRPRPKLIPRP | -0.0143 |
| RRIRHRPPRLPRPRPRPQHWPRP | -0.00395 |
| RRIRVRPPRLPRPRPRPWTHPRP | -0.104 |
| RRIRKRPPRLPRPRPRPIVTPRP | 0.102 |
| RRIRARPPRLPRPRPRPVQNPRP | 0.814 |
| RRIRPRPPRLPRPRPRPTFQPRP | 0.408 |
| RRIRVRPPRLPRPRPRPQSEPRP | -0.107 |
| RRIRRRPPRLPRPRPRPPFDPRP | 0.735 |
| RRIRMRPPRLPRPRPRPEVTPRP | 0.053 |
| RRIRDRPPRLPRPRPRPSRPPRP | 0.452 |

| Sequence | shrunken log2 fold change |
| --- | --- |
| RRIRLRPPRLPRPRPRPSALPRP | -0.0136 |
| RRIRERPPRLPRPRPRPGHRPRP | -0.117 |
| RRIRDRPPRLPRPRPRPSMFPRP | -0.144 |
| RRIRKRPPRLPRPRPRPYMAPRP | -0.0833 |
| RRIRTRPPRLPRPRPRPCWFPRP | -0.21 |
| RRIRGRPPRLPRPRPRPAGLPRP | 0.479 |
| RRIRYRPPRLPRPRPRPTWYPRP | -0.168 |
| RRIRLRPPRLPRPRPRPECDPRP | -0.00082 |
| RRIRTRPPRLPRPRPRPAEKPRP | 0.0882 |
| RRIRERPPRLPRPRPRPNPRPRP | 0.134 |
| RRIRNRPPRLPRPRPRPCRTPRP | -0.124 |
| RRIRRRPPRLPRPRPRPSYPPRP | -0.115 |
| RRIRNRPPRLPRPRPRPLLDPRP | 0.0489 |
| RRIRERPPRLPRPRPRPLFEPRP | -0.0266 |
| RRIRARPPRLPRPRPRPCWNPRP | -0.0387 |
| RRIRGRPPRLPRPRPRPYWTPRP | -0.0522 |
| RRIRKRPPRLPRPRPRPDKPPRP | 0.128 |
| RRIRIRPPRLPRPRPRPYPIPRP | -0.139 |
| RRIRWRPPRLPRPRPRPQHEPRP | -0.0328 |
| RRIRGRPPRLPRPRPRPNKAPRP | 0.454 |
| RRIRIRPPRLPRPRPRPSSFPRP | -0.711 |
| RRIRDRPPRLPRPRPRPLKMPRP | 0.122 |
| RRIRFRPPRLPRPRPRPHKGPRP | -0.0598 |
| RRIRQRPPRLPRPRPRPWHNPRP | -0.385 |
| RRIRWRPPRLPRPRPRPLIYPRP | -0.299 |

| Sequence | shrunken log2 fold change |
| --- | --- |
| RRIRDRPPRLPRPRPRPNYEPRP | -0.252 |
| RRIRPRPPRLPRPRPRPAWAPRP | 0.45 |
| RRIRNRPPRLPRPRPRPRQGPRP | -0.0662 |
| RRIRRRPPRLPRPRPRPCETPRP | 0.0583 |
| RRIRIRPPRLPRPRPRPNGWPRP | 0.101 |
| RRIRGRPPRLPRPRPRPGRGPRP | 0.773 |
| RRIRPRPPRLPRPRPRPPYKPRP | -0.113 |
| RRIRFRPPRLPRPRPRPNQFPRP | -0.0599 |
| RRIRDRPPRLPRPRPRPFHWPRP | -0.0944 |
| RRIRGRPPRLPRPRPRPFFIPRP | 0.0612 |
| RRIRPRPPRLPRPRPRPRTRPRP | 0.187 |
| RRIRTRPPRLPRPRPRPNSDPRP | -0.0311 |
| RRIRMRPPRLPRPRPRPASYPRP | 0.0757 |
| RRIRQRPPRLPRPRPRPGELPRP | -0.091 |
| RRIRPRPPRLPRPRPRPDNCPRP | -0.197 |
| RRIRERPPRLPRPRPRPPCLPRP | -0.579 |
| RRIRVRPPRLPRPRPRPCMTPRP | 0.0668 |
| RRIRDRPPRLPRPRPRPCELPRP | 0.0111 |
| RRIRSRPPRLPRPRPRPGIKPRP | -0.0207 |
| RRIRLRPPRLPRPRPRPSADPRP | 0.07 |
| RRIRKRPPRLPRPRPRPFIEPRP | -0.205 |
| RRIRMRPPRLPRPRPRPQYSPRP | 0.0353 |
| RRIRLRPPRLPRPRPRPDGEPRP | -0.00819 |
| RRIRERPPRLPRPRPRPCEMPRP | 0.118 |
| RRIRIRPPRLPRPRPRPYTRPRP | -0.353 |

| Sequence | shrunken log2 fold change |
| --- | --- |
| RRIRARPPRLPRPRPRPYGIPRP | -0.00196 |
| RRIRARPPRLPRPRPRPHIGPRP | -0.175 |
| RRIRYRPPRLPRPRPRPNDKPRP | -0.892 |
| RRIRRRPPRLPRPRPRPPITPRP | 0.13 |
| RRIRVRPPRLPRPRPRPTAWPRP | 0.145 |
| RRIRLRPPRLPRPRPRPMHDPRP | -0.134 |
| RRIRDRPPRLPRPRPRPCKEPRP | 0.00884 |
| RRIRARPPRLPRPRPRPMIQPRP | 0.0771 |
| RRIRRRPPRLPRPRPRPKQRPRP | 0.288 |
| RRIRYRPPRLPRPRPRPRQIPRP | -0.137 |
| RRIRQRPPRLPRPRPRPTITPRP | -0.273 |
| RRIRQRPPRLPRPRPRPYRCPRP | -0.122 |
| RRIRSRPPRLPRPRPRPDTVPRP | -0.323 |
| RRIRYRPPRLPRPRPRPFNKPRP | -0.00496 |
| RRIRFRPPRLPRPRPRPWQNPRP | -0.00226 |
| RRIRLRPPRLPRPRPRPFQNPRP | -0.0252 |
| RRIRDRPPRLPRPRPRPYKEPRP | -0.372 |
| RRIRFRPPRLPRPRPRPLTTPRP | 0.0259 |
| RRIRVRPPRLPRPRPRPRVSPRP | 0.205 |
| RRIRGRPPRLPRPRPRPAVGPRP | 1.77 |
| RRIRARPPRLPRPRPRPLVHPRP | -0.139 |
| RRIRARPPRLPRPRPRPGVSPRP | 0.559 |
| RRIRTRPPRLPRPRPRPMLIPRP | 0.0601 |
| RRIRNRPPRLPRPRPRPFRGPRP | 0.168 |
| RRIRLRPPRLPRPRPRPQYEPRP | -0.166 |
